Here are results for 46 molecules from patent publication US20040253247A1 (Genentech, published 2004).

One experiment addresses rat albumin (rat, UniProt P02770 25-608). Description: phage ELISA. The method, then:
(§1) Phage ELISA—Phage clones (˜10¹¹ phage) were added to plates coated with rat, rabbit or human albumin. The microtiter plate was washed with wash buffer and bound phage were detected with HRP/Anti-M13 Conjugate. The amount of HRP bound was measured using ABTS/H₂O₂ substrate and monitoring the change at 405 nm.
In general terms: In an ELISA, binding on a coated surface is turned into a signal by an enzyme label.

For a further experiment, the target named is rabbit albumin (rabbit, UniProt P49065 25-608). Put plainly: phage ELISA. As to the method:
as §1

Where no end group is shown, it is not given here.

Sequence of rat albumin (P02770 25-608 limits assumed): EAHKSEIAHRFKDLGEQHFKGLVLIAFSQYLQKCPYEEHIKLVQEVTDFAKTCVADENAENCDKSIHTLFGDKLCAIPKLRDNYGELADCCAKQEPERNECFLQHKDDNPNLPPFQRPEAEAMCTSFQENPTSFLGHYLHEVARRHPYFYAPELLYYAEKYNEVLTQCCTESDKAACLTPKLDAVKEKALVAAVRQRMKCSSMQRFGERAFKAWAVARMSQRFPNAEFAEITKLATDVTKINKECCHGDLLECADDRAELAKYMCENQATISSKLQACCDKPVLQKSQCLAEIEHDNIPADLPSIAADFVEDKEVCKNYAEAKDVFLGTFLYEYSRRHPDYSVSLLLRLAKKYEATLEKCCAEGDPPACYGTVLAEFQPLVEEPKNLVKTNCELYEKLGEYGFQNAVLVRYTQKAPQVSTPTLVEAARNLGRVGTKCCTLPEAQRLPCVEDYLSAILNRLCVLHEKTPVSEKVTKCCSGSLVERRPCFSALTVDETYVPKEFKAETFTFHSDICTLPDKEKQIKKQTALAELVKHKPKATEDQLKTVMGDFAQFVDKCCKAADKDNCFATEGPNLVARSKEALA
Sequence of rabbit albumin (P49065 25-608 limits assumed): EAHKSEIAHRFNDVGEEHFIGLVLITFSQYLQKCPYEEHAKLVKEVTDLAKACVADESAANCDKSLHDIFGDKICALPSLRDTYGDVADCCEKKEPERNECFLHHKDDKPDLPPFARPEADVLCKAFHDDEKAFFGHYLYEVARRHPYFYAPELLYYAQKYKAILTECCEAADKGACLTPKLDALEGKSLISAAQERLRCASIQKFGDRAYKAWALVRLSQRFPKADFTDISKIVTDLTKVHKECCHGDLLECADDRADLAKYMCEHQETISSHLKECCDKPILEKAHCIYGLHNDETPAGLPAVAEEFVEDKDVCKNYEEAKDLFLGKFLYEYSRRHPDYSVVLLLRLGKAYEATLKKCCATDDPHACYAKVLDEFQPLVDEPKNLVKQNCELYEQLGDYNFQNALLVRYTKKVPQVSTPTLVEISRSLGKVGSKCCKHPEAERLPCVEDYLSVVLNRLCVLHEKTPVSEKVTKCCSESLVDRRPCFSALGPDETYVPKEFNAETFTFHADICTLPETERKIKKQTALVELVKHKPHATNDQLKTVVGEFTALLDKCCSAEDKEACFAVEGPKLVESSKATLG

B1: HBC-H19 (peptide)
peptide: VRDMCYFPGICWKSE
notes: phage clone, Library HBC
B1: the binding result in the experiment with rat albumin and with rabbit albumin was “no binding” in each case.

B2: HBC-H18 (peptide)
peptide: RDTVCYFPGICWMAS
notes: phage clone, Library HBC
B2: the binding result with rat albumin and with rabbit albumin was “no binding” each time.

B3: HA-H73 (peptide)
peptide: GVRTFCQDWPAHNSCKLLRG
notes: phage clone, Library HA
B3: the binding result with rat albumin and with rabbit albumin was “no binding” each time.

B4: HB-H8 (peptide)
peptide: MEPSRSVCYAEGICFDRGEQ
notes: phage clone, Library HB
For the molecule B4, the binding result with rat albumin and in the experiment with rabbit albumin was “no binding” throughout.

B5: HC-H18 (peptide)
peptide: DMCYFPGICFN
notes: phage clone, Library HC
Consider B5, for which the binding result with rat albumin and in the experiment with rabbit albumin was “no binding” in each case.

B6: HBC-H17 (peptide)
peptide: HAEICYFPGICWTER
notes: phage clone, Library HBC
Consider B6, for which the binding result in the experiment with rat albumin and in the experiment with rabbit albumin was “no binding” throughout.

B7: HBC-H4 (peptide)
peptide: GGEICYFPGICRVLP
notes: phage clone, Library HBC
B7: the binding result with rat albumin and in the experiment with rabbit albumin was “no binding” throughout.

B8: HB-H10 (peptide)
peptide: IVEMCYYPGICWISP
With B8, the binding result with rat albumin and with rabbit albumin was “no binding” in each case.

B9: HC-H20 (peptide)
peptide: ELCYFPGICWM
notes: phage clone, Library HC
Regarding B9, the binding result in the experiment with rat albumin and with rabbit albumin was “no binding” each time.

B10: HB-H12 (peptide)
peptide: EICYFPGICWI
Regarding B10, the binding result with rat albumin and with rabbit albumin was “no binding” in each case.

B11: HC-H14 (peptide)
peptide: ALCYFPGICWM
notes: phage clone, Library HC
Turning to B11, the binding result with rat albumin and with rabbit albumin was “no binding” each time.

B12: HC-H10 (peptide)
peptide: KTCYFPGICWM
notes: phage clone, Library HC
With B12, the binding result with rat albumin and in the experiment with rabbit albumin was “no binding” each time.

B13: HC-H15 (peptide)
peptide: ELCYFPGICWP
notes: phage clone, Library HC
In the case of B13, the binding result with rat albumin and in the experiment with rabbit albumin was “no binding” throughout.

B14: HC-H3 (peptide)
peptide: DLCYFPGICWM
notes: phage clone, Library HC
B14: the binding result with rat albumin and with rabbit albumin was “no binding” each time.

B15: HC-H19 (peptide)
peptide: EVCYFPGICWM
notes: phage clone, Library HC
Consider B15, for which the binding result with rat albumin and in the experiment with rabbit albumin was “no binding” each time.

B16: HC-H7 (peptide)
peptide: EMCYFPGICWS
notes: phage clone, Library HC
For the molecule B16, the binding result with rat albumin and with rabbit albumin was “no binding” each time.

B17: HC-H5 (peptide)
peptide: KVCYFPGICWM
modifications: not fully specified (bridges); cysteine pairing not given here
notes: phage clone, Library HC
Take B17: the binding result with rat albumin and with rabbit albumin was “no binding” throughout.

B18: HB-H13 (peptide)
peptide: ELCYFPGICWT
B18: the binding result with rat albumin and in the experiment with rabbit albumin was “no binding” throughout.

B19: HC-H8 (peptide)
peptide: DVCYFPGICWM
notes: phage clone, Library HC
Regarding B19, the binding result with rat albumin and with rabbit albumin was “no binding” each time.

B20: HC-H9 (peptide)
peptide: EMCYFPGICWT
notes: phage clone, Library HC
In the case of B20, the binding result in the experiment with rat albumin and with rabbit albumin was “no binding” each time.

B21: HC-H17 (peptide)
peptide: EICYFPGICWM
notes: phage clone, Library HC
Turning to B21, the binding result in the experiment with rat albumin and with rabbit albumin was “no binding” each time.

B22: HC-H16 (peptide)
peptide: EVCYFPGICWE
notes: phage clone, Library HC
With B22, the binding result with rat albumin and with rabbit albumin was “no binding” each time.

B23: HC-H11 (peptide)
peptide: EVCYFPGICWF
notes: phage clone, Library HC
As to B23, the binding result with rat albumin and with rabbit albumin was “no binding” throughout.

B24: HC-H4 (peptide)
peptide: GMCYFPGICWA
notes: phage clone, Library HC
For B24, the binding result in the experiment with rat albumin and with rabbit albumin was “no binding” each time.

B25: HBC-H13 (peptide)
peptide: QTELCYFPGICWNES
notes: phage clone, Library HBC
Take B25: the binding result in the experiment with rat albumin and with rabbit albumin was “no binding” throughout.

B26: HC-H6 (peptide)
peptide: DICYIPGICWM
notes: phage clone, Library HC
With B26, the binding result with rat albumin and in the experiment with rabbit albumin was “no binding” in each case.

B27: HB-H16 (peptide)
peptide: RMPASLPCYWETICYESSEQ
notes: phage clone, Library HB
With B27, the binding result in the experiment with rat albumin and with rabbit albumin was “no binding” in each case.

B28: HB-H7 (peptide)
peptide: SGAICYVPGICWTHA
B28: the binding result in the experiment with rat albumin and with rabbit albumin was “no binding” in each case.

B29: HBC-H6 (peptide)
peptide: EHDMCYFPGICWIAD
notes: phage clone, Library HBC
In the case of B29, the binding result with rat albumin and with rabbit albumin was “no binding” throughout.

B30: HA-H83 (peptide)
peptide: GRSFCMDWPAHKSCTPLML
notes: phage clone, Library HA
As to B30, the binding result in the experiment with rat albumin and with rabbit albumin was “no binding” throughout.

B31: HB-H6 (peptide)
peptide: RGPDVCYWPSICFERSMP
modifications: not fully specified (bridges); cysteine pairing not given here
notes: phage clone, Library HB
Turning to B31, the binding result with rat albumin and with rabbit albumin was “no binding” throughout.

B32: HB-H3 (peptide)
peptide: REPASLVCYFEDICFVRAEA
notes: phage clone, Library HB
Consider B32, for which the binding result with rat albumin and in the experiment with rabbit albumin was “no binding” each time.

B33: HBC-H12 (peptide)
peptide: ASEICYFPGICWMVE
notes: phage clone, Library HBC
For B33, the binding result with rat albumin and with rabbit albumin was “no binding” each time.

B34: HBC-H11 (peptide)
peptide: NDEICYFPGVCWKSG
notes: phage clone, Library HBC
For the molecule B34, the binding result with rat albumin and with rabbit albumin was “no binding” throughout.

B35: HBC-H2 (peptide)
peptide: SREVCYYPGICWNGA
notes: phage clone, Library HBC
B35: the binding result in the experiment with rat albumin and in the experiment with rabbit albumin was “no binding” throughout.

B36: HC-H13 (peptide)
peptide: DMCYFPGICWL
notes: phage clone, Library HC
In the case of B36, the binding result with rat albumin and in the experiment with rabbit albumin was “no binding” in each case.

B37: HBC-H15 (peptide)
peptide: KTEICYFPGICWMSG
notes: phage clone, Library HBC
On to B37, for which the binding result with rat albumin and with rabbit albumin was “no binding” each time.

B38: HB-H18 (peptide)
peptide: RTAESLVCYWPGICFAQSER
notes: phage clone, Library HB
In the case of B38, the binding result in the experiment with rat albumin and with rabbit albumin was “no binding” throughout.

B39: HB-H4 (peptide)
peptide: LVPERIVCYFESICYERSEL
notes: phage clone, Library HB
B39: the binding result with rat albumin and with rabbit albumin was “no binding” in each case.

B40: HBC-H3 (peptide)
peptide: GTEVCYFPGICWGGG
notes: phage clone, Library HBC
Turning to B40, the binding result in the experiment with rat albumin and with rabbit albumin was “no binding” in each case.

B41: HC-H2 (peptide)
peptide: KLCYFPGICWS
notes: phage clone, Library HC
For the molecule B41, the binding result in the experiment with rat albumin and in the experiment with rabbit albumin was “no binding” each time.

B42: HBC-H14 (peptide)
peptide: TTEMCYFPGICWKTE
notes: phage clone, Library HBC
With B42, the binding result with rat albumin and in the experiment with rabbit albumin was “no binding” in each case.

B43: HB-H1 (peptide)
peptide: RAPERWVCYWEGICFDRYEQ
notes: phage clone, Library HB
Regarding B43, the binding result with rat albumin and in the experiment with rabbit albumin was “no binding” each time.

B44: HBC-H10 (peptide)
peptide: VQEVCYFPGICWMQE
notes: phage clone, Library HBC
Turning to B44, the binding result with rat albumin and in the experiment with rabbit albumin was “no binding” in each case.

B45: HA-H76 (peptide)
peptide: QTRSFCADWPRHESCKPLRG
notes: phage clone, Library HA
As to B45, the binding result in the experiment with rat albumin and with rabbit albumin was “no binding” each time.

B46: HBC-H8 (peptide)
peptide: SYAPCYFPGICWMGN
notes: phage clone, Library HBC
With B46, the binding result with rat albumin and with rabbit albumin was “no binding” each time.
